Laboratory results from PMC12120360, “Lysine acetylation modulates s‐OPA1 GTPase activity and oligomerization in mitochondrial membrane remodeling” (Protein Science : A Publication of the Protein Society, 2025).

Target: the molecule itself
Assay: mass photometry; protein in solution at 75 nM final; 20 mM HEPES-NaOH pH 7.5, 130 mM NaCl, 10 mM KCl, 2 mM MgCl2, 2 mM DTT, 2% glycerol; Refeyn mass photometer; mass measured three times for each protein

Protein	stoichiometry N
s-OPA1 K772R (domain or fragment, human, UniProt O60313-1 195-960, looked up, 10 endogenous acetylated lysine residues, including K328 and K342 (listed in Figure 2c), Optic Atrophy 1 (OPA1), human, short form (s-OPA1), residues 195-960; domain model of isoform 1; Gene bought from Genscript in the pGS-21a vector; source: E. coli BL21 (DE3), purified (glutathione resin, 3C protease cleavage, size exclusion chromatography)) ATDRGSESDKHFRKVSDKEKIDQLQEELLHTQLKYQRILERLEKENKELRKLVLQKDDKGIHHRKLKKSLIDMYSEVLDVLSDYDASYNTQDHLPRVVVVGDQSAGKTSVLEMIAQARIFPRGSGEMMTRSPVKVTLSEGPHHVALFKDSSREFDLTKEEDLAALRHEIELRMRKNVKEGCTVSPETISLNVKGPGLQRMVLVDLPGVINTVTSGMAPDTKETIFSISKAYMQNPNAIILCIQDGSVDAERSIVTDLVSQMDPHGRRTIFVLTKVDLAEKNVASPSRIQQIIEGKLFPMKALGYFAVVTGKGNSSESIEAIREYEEEFFQNSKLLKTSMLKAHQVTTRNLSLAVSDCFWKMVRESVEQQADSFKATRFNLETEWKNNYPRLRELDRNELFEKAKNEILDEVISLSQVTPKHWEEILQQSLWERVSTHVIENIYLPAAQTMNSGTFNTTVDIKLKQWTDKQLPNKAVEVAWETLQEEFSRFMTEPKGKEHDDIFDKLKEAVKEESIKRHKWNDFAEDSLRVIQHNALEDRSISDKQQWDAAIYFMEEALQARLKDTENAIENMVGPDWRKRWLYWKNRTQEQCVHNETKNELEKMLKCNEEHPAYLASDEITTVRKNLESRGVEVDPSLIKDTWHQVYRRHFLKTALNHCNLCRRGFYYYQRHFVDSELECNDVVLFWRIQRMLAITANTLRQQLTNTEVRRLEKNVKEVLEDFAEDGEKKIKLLTGKRVQLAEDLKKVREIQEKLDAFIEALHQEK	2
s-OPA1 K579Q (domain or fragment, human, UniProt O60313-1 195-960, looked up, endogenous lysine acetylation, sites listed in Figure 2c, Optic Atrophy 1 (OPA1), human, short form (s-OPA1), residues 195-960; domain model of isoform 1; Gene bought from Genscript in the pGS-21a vector; source: E. coli BL21 (DE3), purified (glutathione resin, 3C protease cleavage, size exclusion chromatography)) ATDRGSESDKHFRKVSDKEKIDQLQEELLHTQLKYQRILERLEKENKELRKLVLQKDDKGIHHRKLKKSLIDMYSEVLDVLSDYDASYNTQDHLPRVVVVGDQSAGKTSVLEMIAQARIFPRGSGEMMTRSPVKVTLSEGPHHVALFKDSSREFDLTKEEDLAALRHEIELRMRKNVKEGCTVSPETISLNVKGPGLQRMVLVDLPGVINTVTSGMAPDTKETIFSISKAYMQNPNAIILCIQDGSVDAERSIVTDLVSQMDPHGRRTIFVLTKVDLAEKNVASPSRIQQIIEGKLFPMKALGYFAVVTGKGNSSESIEAIREYEEEFFQNSKLLKTSMLKAHQVTTRNLSLAVSDCFWKMVRESVEQQADSFKATRFNLETEWQNNYPRLRELDRNELFEKAKNEILDEVISLSQVTPKHWEEILQQSLWERVSTHVIENIYLPAAQTMNSGTFNTTVDIKLKQWTDKQLPNKAVEVAWETLQEEFSRFMTEPKGKEHDDIFDKLKEAVKEESIKRHKWNDFAEDSLRVIQHNALEDRSISDKQQWDAAIYFMEEALQARLKDTENAIENMVGPDWKKRWLYWKNRTQEQCVHNETKNELEKMLKCNEEHPAYLASDEITTVRKNLESRGVEVDPSLIKDTWHQVYRRHFLKTALNHCNLCRRGFYYYQRHFVDSELECNDVVLFWRIQRMLAITANTLRQQLTNTEVRRLEKNVKEVLEDFAEDGEKKIKLLTGKRVQLAEDLKKVREIQEKLDAFIEALHQEK	2
s-OPA1 K342Q (domain or fragment, human, UniProt O60313-1 195-960, looked up, 11 additional acetylation sites (endogenous; listed in Figure 2c), Optic Atrophy 1 (OPA1), human, short form (s-OPA1), residues 195-960; domain model of isoform 1; Gene bought from Genscript in the pGS-21a vector; source: E. coli BL21 (DE3), purified (glutathione resin, 3C protease cleavage, size exclusion chromatography)) ATDRGSESDKHFRKVSDKEKIDQLQEELLHTQLKYQRILERLEKENKELRKLVLQKDDKGIHHRKLKKSLIDMYSEVLDVLSDYDASYNTQDHLPRVVVVGDQSAGKTSVLEMIAQARIFPRGSGEMMTRSPVKVTLSEGPHHVALFQDSSREFDLTKEEDLAALRHEIELRMRKNVKEGCTVSPETISLNVKGPGLQRMVLVDLPGVINTVTSGMAPDTKETIFSISKAYMQNPNAIILCIQDGSVDAERSIVTDLVSQMDPHGRRTIFVLTKVDLAEKNVASPSRIQQIIEGKLFPMKALGYFAVVTGKGNSSESIEAIREYEEEFFQNSKLLKTSMLKAHQVTTRNLSLAVSDCFWKMVRESVEQQADSFKATRFNLETEWKNNYPRLRELDRNELFEKAKNEILDEVISLSQVTPKHWEEILQQSLWERVSTHVIENIYLPAAQTMNSGTFNTTVDIKLKQWTDKQLPNKAVEVAWETLQEEFSRFMTEPKGKEHDDIFDKLKEAVKEESIKRHKWNDFAEDSLRVIQHNALEDRSISDKQQWDAAIYFMEEALQARLKDTENAIENMVGPDWKKRWLYWKNRTQEQCVHNETKNELEKMLKCNEEHPAYLASDEITTVRKNLESRGVEVDPSLIKDTWHQVYRRHFLKTALNHCNLCRRGFYYYQRHFVDSELECNDVVLFWRIQRMLAITANTLRQQLTNTEVRRLEKNVKEVLEDFAEDGEKKIKLLTGKRVQLAEDLKKVREIQEKLDAFIEALHQEK	2
s-OPA1 K328Q (domain or fragment, human, UniProt O60313-1 195-960, looked up, acetyl-lysine at K713 only (endogenous, by mass spectrometry), Optic Atrophy 1 (OPA1), human, short form (s-OPA1), residues 195-960; domain model of isoform 1; Gene bought from Genscript in the pGS-21a vector; also called acetylation mimetic mutant K328Q; source: E. coli BL21 (DE3), purified (glutathione resin, 3C protease cleavage, size exclusion chromatography)) ATDRGSESDKHFRKVSDKEKIDQLQEELLHTQLKYQRILERLEKENKELRKLVLQKDDKGIHHRKLKKSLIDMYSEVLDVLSDYDASYNTQDHLPRVVVVGDQSAGKTSVLEMIAQARIFPRGSGEMMTRSPVQVTLSEGPHHVALFKDSSREFDLTKEEDLAALRHEIELRMRKNVKEGCTVSPETISLNVKGPGLQRMVLVDLPGVINTVTSGMAPDTKETIFSISKAYMQNPNAIILCIQDGSVDAERSIVTDLVSQMDPHGRRTIFVLTKVDLAEKNVASPSRIQQIIEGKLFPMKALGYFAVVTGKGNSSESIEAIREYEEEFFQNSKLLKTSMLKAHQVTTRNLSLAVSDCFWKMVRESVEQQADSFKATRFNLETEWKNNYPRLRELDRNELFEKAKNEILDEVISLSQVTPKHWEEILQQSLWERVSTHVIENIYLPAAQTMNSGTFNTTVDIKLKQWTDKQLPNKAVEVAWETLQEEFSRFMTEPKGKEHDDIFDKLKEAVKEESIKRHKWNDFAEDSLRVIQHNALEDRSISDKQQWDAAIYFMEEALQARLKDTENAIENMVGPDWKKRWLYWKNRTQEQCVHNETKNELEKMLKCNEEHPAYLASDEITTVRKNLESRGVEVDPSLIKDTWHQVYRRHFLKTALNHCNLCRRGFYYYQRHFVDSELECNDVVLFWRIQRMLAITANTLRQQLTNTEVRRLEKNVKEVLEDFAEDGEKKIKLLTGKRVQLAEDLKKVREIQEKLDAFIEALHQEK	2
